Assay: yeast display, Sf9 membrane polyspecificity reagent, FACS + sequencing; frameworks hold sequencing errors
Summary of the method: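 Genes from sorted yeast were amplified by colony PCR, read by MiSeq 2 × 250 sequencing and filtered on CDR length. These cells carried a synthetic nanobody library in Saccharomyces cerevisiae BJ5465 and were sorted by FACS into low and high (top ~1%) gates on anti-HA and streptavidin fluorescence. Polyreactivity is labelled according to the gate of origin.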

| Sequence | polyreactivity (PSR sort gate) |
| --- | --- |
| QVQLVESGGGLVQAGGSLRLSCAASGSIFTVYTMGWYRQAPGKERELVAAINSRGGTTYYADSVKGRFTISRDNAKNTVYLQMNSLKPEDTAVYYCAAKQRPKSYGPGHYYWGQGTQVTVSS | high polyreactivity |
| QVQLVESGGGLVQAGGSLRLSCAASGSIFTWYAMGWYRQAPGKERELVAAISEDGGSTYYADSVKGRFTISRDNAKNTVYLQMNSLKPEDTAVFYCATPVASVTGYDYWGQGTQVTVSS | low polyreactivity |
| QVQLVESGGGLVQAGGSLRLSCAASGSIFTWYAMGWYRQAPGKERELVAAITRGGSTYADSVKGRFTISRDNAKNTVYLQMNSLKPEDTAVYYCNAVYGVYDFNYWGHGTQVTVSS | low polyreactivity |
| QVQLVESGGGLVQAGGSLRLSCAASGSIFTYNAMGWYREAPGKERELVAAIRLSGGSTYYADSVKGRFTISRDNAKNTVYLQMNSLKPEDTAVYYCAAESAAASAVYSVEYDYWGQGTQVTVSS | low polyreactivity |
| QVQLVESGGGLVQAGGSLRLSCAASGSIFTYYAMGWYRQAPGKERELVAAISYSGGTTYYADSVKGRFTISRDNAKNTVYLQMNSLKPEDTAVYYCNVDADYESQWLSVGYDYWGQGTQVTVSS | low polyreactivity |
| QVQLVESGGGLVQAGGSLRLSCAASGSIFVDNAMGWYRQAPGKERELVAAINWSGGSTYYADSVKGRFTISRDNAKNTVYLQMNSLKQEDTAVYYCNAARPVQTWDEQSWYDYWGQGTQVTVSS | low polyreactivity |
| QVQLVESGGGLVQAGGSLRLSCAASGSIFVDYAMGWYRQAPGKERELVAAISSGGSTNYADSVKGRFTISRDNAKNTVYLQMNSLKPEDTAVYYCAADGSYGYDYWGQGTQVTVSS | low polyreactivity |
| QVQLVESGGGLVQAGGSLRLSCAASGSIFVDYAMGWYRQAPGKERELVASISGGGSSTYYADSVMGRFTISRDNAKNTVYLQMNSLKPEDTALYYCARDGVRSSSEYDYWGQGTQVTVSS | low polyreactivity |
| QVQLVESGGGLVQAGGSLRLSCAASGSIFVENAMGWYRQAPGEERELVAAISSSGDSTYYADSVKGRFTISRDNAKNTVYLQINSLKPEDTAVYYCNRRRPRYYWGQGTQVTVSS | high polyreactivity |
| QVQLVESGGGLVQAGGSLRLSCAASGSIFVEYAMGVYREAPGKERELVATINLSAGSTYYADSVKGRFTISRDNAMNTGYLQMNRLKPEDTAVYYCAALYYWDQPQLEFSYLGQGTQVTVSS | low polyreactivity |
| QVQLVESGGGLVQAGGSLRLSCAASGSIFVEYDMGWYIQAPGKERELVADISGTGNTYYADSVKGRFTISRDNAQNTVYLQMNSLKPEDTSVYYCAAGTYFTNYWSPFVWYDYWGQGTQVTVSS | high polyreactivity |
| QVQLVESGGGLVQAGGSLRLSCAASGSIFVFYAMGWYRQAPGKERELVAAIDVSDGSTYYADSVKGRFTISRDNAKNTVYLQMNSLKPEDTAVYYCATYVVTYYWWYTYDYWGQGTQVTVSS | low polyreactivity |
| QVQLVESGGGLVQAGGSLRLSCAASGSIFVGNAMGWSRQAPGKERELVAAISLSGGSTYFADSVKGRFTISRDNAKNTVYLQMNSLKPDDTAVYYCAAQTKPASRVTYYWYYYWGQGTQVTVSS | low polyreactivity |
| QVQLVESGGGLVQAGGSLRLSCAASGSIFVGNAMGWYRQAPGKERELVAAISSSGGSTYYADSVKGRFTISRDNAKNTVYLQMNSLKPEDTAVYYCAADTYSTSVYYYWGQGTQVTVSS | low polyreactivity |
| QVQLVESGGGLVQAGGSLRLSCAASGSIFVGNAMGWYRQAPGKERELVAAITRSGGRTYYADSVKGRFTISRDNAKNTVYLQMNSLKPEDTAVYYCNAVYWTVYSREYDYWGQGTQVTVSS | high polyreactivity |
| QVQLVESGGGLVQAGGSLRLSCAASGSIFVGNAMGWYRQAPGKERELVAGISKSGSRTYYADSVKGRFTISRDNAKNTVYVQMNSLKPEDTSVYYCAAGKVAYYTLDYYWGQGTQVTVSS | high polyreactivity |

| Sequence | polyreactivity (PSR sort gate) |
| --- | --- |
| QVQLVESGGGLVQAGGSLRLSCAASGSIFVGNAMGWYRQAPGKEWELVAAISAGGSTYYADSVKGRFTISRDNAKNTVYLKLNSLKTEDTAVYYCAAYYVRRYSSRPKDDYWGQGTQVTVSS | low polyreactivity |
| QVQLVESGGGLVQAGGSLRLSCAASGSIFVGYAMGWYRQAPGKERELVAAIRSGGSTKYADSVKGRFTISRDNAKNTVYLQMNSLKAEDTAVYYCNVEVHPYYWVDNFHRFPVLHNYWGQGTQVTVSS | low polyreactivity |
| QVQLVESGGGLVQAGGSLRLSCAASGSIFVGYAMGWYRQAPGKERELVAAISWSGDSTYYADSVKGRFTISRDNAKNTVYLQMNSLKPEDTAVYYCAVDYAEIGPRREVEYDYWGQGTQVTVSS | low polyreactivity |
| QVQLVESGGGLVQAGGSLRLSCAASGSIFVGYAMGWYRQAPGKERELVATISSSATSTYYADSVKGRFTISRDNATNTVYLQMNSLKPEDTAVYSCAVERDYGWPIYIRWHFDYWGQGTQVTVAS | low polyreactivity |
| QVQLVESGGGLVQAGGSLRLSCAASGSIFVGYARGWYRQAPGKERELVAAISFSGGSTYYADSVKGRFTLSRDNAKNTVYLQMNSLKPEDTAVYYCNAYSWYNGIGNYDYWGQGTQVTVSS | low polyreactivity |
| QVQLVESGGGLVQAGGSLRLSCAASGSIFVGYDMGWYRQAPGKARELVAAITRDGDTNYADSVKGRFTISRDNAKNTVYLQMNSLKPEDTAVYYCAADRWLYSWFFNYDQGDYWGQGTQVTVSS | low polyreactivity |
| QVQLVESGGGLVQAGGSLRLSCAASGSIFVGYDMGWYRQAPGKERELVASINGGDSTNYADSVKGRFTISRDNAKNTVYLQMNSLKPEDTAVYYCAKDVTYTDEYDYWGQGTQVTVSS | low polyreactivity |
| QVQLVESGGGLVQAGGSLRLSCAASGSIFVGYDMGWYRQAPGKEREWVAAITSSGGGSTYYADSVKGRFTISRDNAKNTVYLQMNSLKPEDTAVYYCAARTSLWWFLKYDYWGQGTQVTVSS | low polyreactivity |
| QVQLVESGGGLVQAGGSLRLSCAASGSIFVGYTMGWYRQAPGKETELVADITYNGGTTYYADSVKGRFTISRDNAKNTVYLQMNSLKPEETAVYYCAADYYYACFPVYYWGQGTQVTVSS | high polyreactivity |
| QVQLVESGGGLVQAGGSLRLSCAASGSIFVGYVMGWYRQAPGKERELVAAISRSGGRTYYADSVKGRFTISRDNAKNTVYLQMNSLKPEDTAVYYCNADVIDLDYDYWGQGTQVTVSS | low polyreactivity |
| QVQLVESGGGLVQAGGSLRLSCAASGSIFVHNAMGWYRHAPGKERELVAAITWSGGSTYYADSVKGRFTISRDNAKNTVYLQMNSLKPEDTAVYYCAAEDVAAQWAYESPTSYWYYYWGQGTQVTVSS | low polyreactivity |
| QVQLVESGGGLVQAGGSLRLSCAASGSIFVHYAMGWYRQAPGKERELVARISWRGNTYYADSVKGRFTISRDNAKNTVYLQMNSLKPEDTAVYYCATGQSVIYRYEYWGQGTQVTVSS | low polyreactivity |
| QVQLVESGGGLVQAGGSLRLSCAASGSIFVINAMGWYRQAPGKERELVAAISYSGTGTYYADSVKGRFTISRDNAKNTVYLQMNSLKAEDTAVYYCAADFYYRYRIYDYWGQGTQVTVSS | low polyreactivity |
| QVQLVESGGGLVQAGGSLRLSCAASGSIFVIYAMGWYRQAPGKERELVAAITYSGGSTYYADSVKGRFTISRDNAKNTVYLQMNSLKPEDTAVYYCAAVRDSRYYDYDYWGQGTQVTVSS | low polyreactivity |
| QVQLVESGGGLVQAGGSLRLSCAASGSIFVIYSMGWYRQAPGKERELVARITKSGGSTYYADSVKGRFTISRDNAKITVYLQMNSLKPEDTAVYYCNVGYGGSSDGGYDYWGQGTQVTVSS | high polyreactivity |

From the nanobody polyreactivity screen of Harvey et al. (2022)
